Assays:
[1] = molecular target: the molecule itself; assay: SEC; 250 µl of 100 μM peptide on Superdex30 analytical column, 25 mM sodium phosphate buffer pH 6.8 (IS = 40 mM); comparison of elution profiles
[2] = molecular target: the molecule itself; assay: SEC; 500 μM WT STIL CCD peptide on Superdex30 analytical column, 25 mM sodium phosphate buffer pH 6.8 (IS = 40 mM)
[3] = molecular target: the molecule itself; assay: SEC; 35 μM WT STIL CCD peptide on Superdex30 analytical column, 25 mM sodium phosphate buffer pH 6.8 (IS = 40 mM)

B1: WT STIL CCD peptide (STIL amino acids 718-749) (peptide)
peptide: LSPDAYRFLTEQDRQLRLLQAQIQRLLEAQSL
notes: also called WT CCD; STIL coiled coil peptide; source: synthetic peptide
stoichiometry N [1]: ~4 | stoichiometry N [2]: 4 | stoichiometry N [3]: ~2

ESPDAYRFLTEQDRQLRLLQAQIQRLLEAQSL (source: synthetic peptide) [STIL CCD L718E peptide]
stoichiometry N [1]: ~2

LSPDAYRFLTEQDRQLRLEQAQIQRLLEAQSL (source: synthetic peptide) [STIL CCD L736E peptide]
stoichiometry N [1]: ~2

Reference: paper PMC4830966, “Molecular basis of the STIL coiled coil oligomerization explains its requirement for de-novo formation of centrosomes in mammalian cells” (Scientific Reports, 2016)
